# Data: the nanobody polyreactivity screen of Harvey et al. (2022)
# Assay: yeast display, Sf9 membrane polyspecificity reagent, FACS + sequencing; frameworks hold sequencing errors
# Summary of the method: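 Nanobodies came from a synthetic yeast display library in Saccharomyces cerevisiae BJ5465, induced with galactose for 36–48 hours and stained for 1 hour at 4 °C with 10% biotinylated, detergent-solubilized Sf9 membrane reagent. Cells were enriched on streptavidin microbeads and then FACS-sorted, with low and high (top ~1%) gates set on anti-HA fluorescence for expression and streptavidin fluorescence for reagent binding. Each polyreactivity label reflects the gate a clone came from. Genes were amplified by colony PCR, sequenced by MiSeq 2 × 250 and filtered by CDR length.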
row,Sequence,polyreactivity (PSR sort gate)
1,QVQLVESGGRLVQAGGSLRLSSAASGRIFASNAMGWYRQAPGKERELVAAIDQGGGSTYYADSVKGRFTISRDNAKNTVYLQMNSLKPEDTAVYYCAADYITAYPRLYNYWGQGTQVTVSS,low polyreactivity
2,QVQLVESGGRLVQAGRSLRLSCAASGSIFHDYAMGWYRQAPGKERELVAVISTSGGSTYYADSVKGRFTISRDNAKNTVYCQMNRLKPEDTAFYYCNARTVGPYPSHAALEYDSWGQGTQVTVSS,low polyreactivity
3,QVQLVESGGRLVQAVASHRLSCAASGSIFRKYALGCYRQAPGKERELVAAIRSSGGSTYYADSVKGRFTISRDNAKNTVYLQMISLIPEDTAVYYCAARYYRPSRYDYWGQGTQVTVSS,high polyreactivity
4,QVQLVESGGRLVQSGGSLRLSCAASGFIFSYNAMGLYRQAPGKERELVASIRTRGGSTYYADSVKGRFTISRDNAKNSVYLQMNSLKPEDTAVYYCAARPFQRRYDYWGQGTQVTVST,low polyreactivity
5,QVQLVESGGRLVQSGGSLRLSCAASGNTFIPNAMGWYRQAPGKERELVAAIRASGGSTYYADSVKGRFTISRDNAKNTVYLQMNSLKPEDTAVYYCNADIWYKTYDYWGQGTQVTVSS,low polyreactivity
6,QVQLVESGGRLVQSGGSLRLSCAPSGSIFLRNAMGWYRQAPGKEREFVASITWNGASTSYADSVKGRFTISRDYAMNTVYLQMNSLKPEDTAVYFCAAVTVQDSNLKYGYWGQGTQVTVSS,low polyreactivity
7,QVQLVESGGRVVQAGGILRLRCAGSGSILVHYAMGWYRQAPGKDRELVAAISRGGSTNYADSVKGRFTISRDNAKNTVYLQMNSLKPEDTAVYYCDARRPWGEYYWGQGTQVTVSS,low polyreactivity
8,QVQLVESGGVLDQAGGSLRLRCAASGSTYYRNAMGWYRQAPGKERELVATINRGGSTYYADSVKWRFTISRDNAKNTVYLQMNSLKPEDPAVYYWAKDPYYAGRYRGDYWGQGTQVTVSS,high polyreactivity
9,QVQLVESGGVLFQAGGSLSLSCAASGLTFPRYAMGWYRQAPGKESELDAAISYRGSRTYYADSVKGRFTISRDNAKNTVYLQMNSLKPEDTAVYYCNKVRPGYGVTYLVGYWGQGTQVTVSS,high polyreactivity
10,QVQLVESGGVLLQAGASLRLSCAASGSIIRSYAMGWYRQAPGKERELVASISRRGGSTYYADSVKGRFTISRDNPKNSVFLQMNSLNPVDTADYYCGAVTTSKFNFWGQGTQVTVSS,low polyreactivity
11,QVQLVESGGVLLQAGGSLRLSCAASGTIQYIKTMGWYRQAPGKERELVAAITYSGGSTYYADSVKGRFTISRDNAKNTVYLQRNSLKPVVTAVYYCAGDGYYGGYNYWGQGTQVTVSS,low polyreactivity
12,QVQLVESGGVLVQAGGCLRLSCAASGSIFSVNTMGWYRQAPGKERELVATIRTGDSTNYADSVKGRFTISRDNAKNTVYLQMNSLKPEDTAVYYCAAEWSSLNFEYWGQGSQVTVSS,low polyreactivity
13,QVQLVESGGVLVQAGGRLRLSCAASVFGRYAMGWYRQAPGKEREMVARISSSCGSTHYADSVKGRFTISRDNAKNTVYLEMNSLKPEDTAVYYCAARSYDTYWWYGYWGQGTQVTVSS,high polyreactivity
14,QVQLVESGGVLVQAGGSIRLSCAASGRIIYKNAMGWYRQAPGKERELVAAITSSGGSTYYADSVKGRFTISRDNAKITVYFQMNSLKPEDTAVYYCAAYAYGRFGKLNYWGQGTQVTVSS,low polyreactivity
15,QVQLVESGGVLVQAGGSLPLSCAASGSIFGSYAMGWSRQAPGKERELVAAIRWSGGSTRYADSVKGRFTISRDIAKNRVYLHMNSLKPEDTAVYYCAAVWRYLGYTSMDYWGQGTQVTVSS,low polyreactivity
16,QVQLVESGGVLVQAGGSLRFSCAASGFFFSSNAIGWYRQAPGKERELVAAISRSVGSTYYADSVKGRFTISRDNAKNTVYLQMNSLKPEDTAVYYCAARIGSYRKYRYDYWGQGTQVTVSS,high polyreactivity

row,Sequence,polyreactivity (PSR sort gate)
1,QVQLVESGGVLVQAGGSLRLSCAASEIIFTFYAMAWYRQAPGKEMELVAAITSSGGRTYYADSVKGRFTISRDNAKNTVYLQMNSLKPEDTAVYYCAARLPGYVRKYDYWGQGTQVTVSW,high polyreactivity
2,QVQLVESGGVLVQAGGSLRLSCAASGNAMGWYRQAPGKERELVAAITRRGGSTYYADSVKGRFTISRDNAKNTVYLQINSLIPEDTAVYYCAADNPSYNLWYGYWGQGTQVTVSS,low polyreactivity
3,QVQLVESGGVLVQAGGSLRLSCAASGRIFPGYVMGWYRQAHGKERELVAAITRGGSTYYADSVKGRFTISRDNAKNTVYLQMNSLKPEDTAVYYCAAKHSHIHYNYWGQGTQVTVSS,low polyreactivity
4,QVQLVESGGVLVQAGGSLRLSCAASGRIFPSYDMGWYRQAPAKERELVDTISTRGDSTYYADSVKGRFTISRDNAKNTVYLQMNSQKPEDTAVYYCAAERPFWEYDYWGQGTQVTVSS,low polyreactivity
5,QVQLVESGGVLVQAGGSLRLSCAASGRIFRANTMGWYRQAPGKEMELVANISKNGGRTYYADSVKGRFTISRDNAKNTVYLQMNSLKPEDTAVYYFNAEWRGWRFLEYGSYIYQSGYWGQGTQVTVSS,high polyreactivity
6,QVQLVESGGVLVQAGGSLRLSCAASGRIFRYNTMGWDRQAPGKERELVATITRGSSTNYADSVKGRFTISRDNAKNTVYLQMNSLKPEDTAVYYCAASVWKWHSYLGRYSYIGYDYWGQGTQVTVSS,high polyreactivity
7,QVQLVESGGVLVQAGGSLRLSCAASGRIIDLNAMGWYREAPGKQRDFVAGITDGGSTYYADSVKGRFTISRDNAKNTVYLQMNSLKPEDTAVDYCAADVYDYLSEFQAFVEEAGYYWGQGTQVTVSS,low polyreactivity
8,QVQLVESGGVLVQAGGSLRLSCAASGRTFHDYAMGWYRQAPGKERELVASISSGGSTYYADSVKGRFTISRDNAKNTDYLQMNSLKPEDTAVYYCAAYYYYTLYYRYDYWGQGTQVNVSS,low polyreactivity
9,QVQLVESGGVLVQAGGSLRLSCAASGSIFDKAMGWSRQAPGKERELVSAITSGGITNYADSVKGRFTISRDNAKNTVYLQMNRLKPEDCAVYYCNTLSPTQTKYDYWGQGTQVSVSS,low polyreactivity
10,QVQLVESGGVLVQAGGSLRLSCAASGSIFFYYAMGWYRQAPGKERELVAAITFTGGSTYYADSVKGRFTISRDNAKNTVYLQMKSLKPEDTAVYYCAADWYYGDEYEYWGQGTQVTVSS,high polyreactivity
11,QVQLVESGGVLVQAGGSLRLSCAASGSIFNYYAMGWYRQAPGKERELVAGITTSGGSTYYADSVKARFTISRDNEKNSVYLQMNSLTPEDTAVYYCAAYDYISSTYFLDDYWGQGTQVTVSS,low polyreactivity
12,QVQLVESGGVLVQAGGSLRLSCAASGSIFSAYVMGWYRQAPGKERELVAAINRGGNTYYADSVKGRFTISRDNAKNTVYLQMNSLKPEDTAVYYCNAQWYYLRYRYDYWGQGTQVTVSS,high polyreactivity
13,QVQLVESGGVLVQAGGSLRLSCAASGSTFVTNAMGWYRQAPGKEREFVAAISNSSGSTYYADSVKGRFTISRDNAKNTVYLQMNSLKPEDTAVYYCNATPDDWLQEDYWGQGTQVTVSS,low polyreactivity
14,QVQLVESGGVLVQAGGSLRLSCAASGSTFVYNAMGWYRQAPGKERELVARISWSVTDTYYADSVKGRFTISRDNAKNTVYLQMNSLKPEDTAVYYCNTDVTYSHLVFGYDYWGQGTQVTVSS,low polyreactivity
15,QVQLVESGGVLVQAGGSLRLSCAASGSTFWLYAMGWNRQAPRKERELVAAITRSGGRTNYADSVKGRFTISRDNAKNTVYLQMNSLKPEDTAVYYCAAEYLGVSYNNWAYDFWGQGTQVTVSS,low polyreactivity
16,QVQLVESGGVLVQAGGSLRLSCAASGSTFYGYAMGWYRQAPAKERELVAAITRSGGSTYYADSVKGRFTISRDNAKNTVYLQMNSLKPEDTAVYYCARQDRDTYYHRYYYGGQGTQVTVSS,high polyreactivity
